B1: felinized clone 101 Fab-SASA variant H55M (VL) (Fab, V domains shown, not shown: small tags and cut ends)
VH: DVQLVESGGDLVKPGGSLRLTCVASGLSLTSSSMSWVRQAPGKGLQWVSTIYSNGGTYYTDSVKGRFTISKDNAENTLYLQMNNLKTEDTATYYCASIYYYDADYLHWYFDFWGQGALVTVSS
VL: EIQMTQSPTSLSASVGDRVTITCRASEGISNNLSWYQQTPGKAPKLLIYATSNLMSGVPSRFSGSGSGTDFTLTISSLQPEDFATYYCQQGYKWPLTFGGGTKLEITR
B2: felinized clone 101 Fab-SASA variant S31H (VH) (Fab, V domains shown, not shown: small tags and cut ends)
VH: B1 VH with S31H
VL: B1 VL with M55H
B3: felinized clone 101 Fab-SASA variant N53I (VL) (Fab, V domains shown, not shown: small tags and cut ends)
VH: B1 VH
VL: B1 VL with N53I, M55H
B4: felinized clone 101 Fab-SASA variant N53V (VL) (Fab, V domains shown, not shown: small tags and cut ends)
VH: B1 VH
VL: B1 VL with N53V, M55H
B5: felinized clone 101 Fab-SASA variant K64E (VH) (Fab, V domains shown, not shown: small tags and cut ends)
VH: B1 VH with K64E
VL: B1 VL with M55H
B6: felinized clone 101 Fab-SASA variant S56E (VL) (Fab, V domains shown, not shown: small tags and cut ends)
VH: B1 VH
VL: B1 VL with M55H, S56E
B7: felinized clone 101 Fab-SASA variant N53H (VL) (Fab, V domains shown, not shown: small tags and cut ends)
VH: B1 VH
VL: B1 VL with N53H, M55H
B8: felinized clone 101 Fab-SASA variant S30P (VL) (Fab, V domains shown, not shown: small tags and cut ends)
VH: B1 VH
VL: B1 VL with S30P, M55H
B9: felinized clone 101 Fab-SASA variant S34G (VL) (Fab, V domains shown, not shown: small tags and cut ends)
VH: B1 VH
VL: B1 VL with S34G, M55H
B10: felinized clone 101 Fab-SASA variant S28H (VH) (Fab, V domains shown, not shown: small tags and cut ends)
VH: B1 VH with S28H
VL: B1 VL with M55H
B11: felinized clone 101 Fab-SASA variant S30Y (VL) (Fab, V domains shown, not shown: small tags and cut ends)
VH: B1 VH
VL: B1 VL with S30Y, M55H
B12: felinized clone 101 Fab-SASA variant R24F (VL) (Fab, V domains shown, not shown: small tags and cut ends)
VH: B1 VH
VL: B1 VL with R24F, M55H
B13: felinized clone 101 Fab-SASA variant N53K (VL) (Fab, V domains shown, not shown: small tags and cut ends)
VH: B1 VH
VL: B1 VL with N53K, M55H
B14: felinized clone 101 Fab-SASA variant S56T (VL) (Fab, V domains shown, not shown: small tags and cut ends)
VH: B1 VH
VL: B1 VL with M55H, S56T
B15: felinized clone 101 Fab-SASA variant S62D (VH) (Fab, V domains shown, not shown: small tags and cut ends)
VH: B1 VH with S62D
VL: B1 VL with M55H
B16: felinized clone 101 Fab-SASA variant N31Q (VL) (Fab, V domains shown, not shown: small tags and cut ends)
VH: B1 VH
VL: B1 VL with N31Q, M55H
B17: felinized clone 101 Fab-SASA variant S56N (VL) (Fab, V domains shown, not shown: small tags and cut ends)
VH: B1 VH
VL: B1 VL with M55H, S56N
B18: felinized clone 101 Fab-SASA variant S34A (VL) (Fab, V domains shown, not shown: small tags and cut ends)
VH: B1 VH
VL: B1 VL with S34A, M55H
B19: felinized clone 101 Fab-SASA variant S30V (VL) (Fab, V domains shown, not shown: small tags and cut ends)
VH: B1 VH
VL: B1 VL with S30V, M55H
B20: felinized clone 101 Fab-SASA variant N53L (VL) (Fab, V domains shown, not shown: small tags and cut ends)
VH: B1 VH
VL: B1 VL with N53L, M55H
B21: felinized clone 101 Fab-SASA variant S30L (VL) (Fab, V domains shown, not shown: small tags and cut ends)
VH: B1 VH
VL: B1 VL with S30L, M55H
B22: felinized clone 101 Fab-SASA variant K64D (VH) (Fab, V domains shown, not shown: small tags and cut ends)
VH: B1 VH with K64D
VL: B1 VL with M55H
B23: felinized clone 101 Fab-SASA variant S30A (VL) (Fab, V domains shown, not shown: small tags and cut ends)
VH: B1 VH
VL: B1 VL with S30A, M55H
B24: felinized clone 101 Fab-SASA variant S53P (VH) (Fab, V domains shown, not shown: small tags and cut ends)
VH: B1 VH with S53P
VL: B1 VL with M55H
B25: felinized clone 101 Fab-SASA variant N53M (VL) (Fab, V domains shown, not shown: small tags and cut ends)
VH: B1 VH
VL: B1 VL with N53M, M55H
B26: felinized clone 101 Fab-SASA variant L54H (VL) (Fab, V domains shown, not shown: small tags and cut ends)
VH: B1 VH
VL: B1 VL with L54H, M55H
B27: felinized clone 101 Fab-SASA variant S30Q (VL) (Fab, V domains shown, not shown: small tags and cut ends)
VH: B1 VH
VL: B1 VL with S30Q, M55H
B28: felinized clone 101 Fab-SASA variant S35V (VH) (Fab, V domains shown, not shown: small tags and cut ends)
VH: B1 VH with S35V
VL: B1 VL with M55H
B29: felinized clone 101 Fab-SASA variant S56D (VL) (Fab, V domains shown, not shown: small tags and cut ends)
VH: B1 VH
VL: B1 VL with M55H, S56D

Substitutions are numbered along the chain they refer to. Numbers in names are those of the source.

T1 sequence (A0A8I3PYI3 entry or part of it): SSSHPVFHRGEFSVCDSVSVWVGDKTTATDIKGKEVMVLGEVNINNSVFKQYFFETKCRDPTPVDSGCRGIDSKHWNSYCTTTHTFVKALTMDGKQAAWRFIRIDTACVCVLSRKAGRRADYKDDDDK

This assay concerns the target T1, canine NGF tagged at the C-terminus with the Flag tag (canine, UniProt A0A8I3PYI3 122-241).
T1 construct: mature; Expressed with baculovirus technology; also called feline NGF (processed form identical)
The assay can be described thus: SPR off-rate screen, Fab-SASA on BSA chip.
For the molecule B1, the dissociation constant Kd came to 0.935 nM, the “Ratio WT-kd/clone-kd” value is 3.02, the dissociation rate constant (koff) turned out to be 0.000312 s⁻¹ and the kon was 333000 M⁻¹ s⁻¹.

With B2, the Kd came out at 1.98 nM, the “Ratio WT-kd/clone-kd” value stood at 1.54, the koff is 0.000612 s⁻¹ and the kon came to 310000 M⁻¹ s⁻¹.

Consider B3, for which the dissociation constant (Kd) was determined as 1.41 nM, the “Ratio WT-kd/clone-kd” value came out at 2.42, the koff was 0.000389 s⁻¹ and the kon was 276000 M⁻¹ s⁻¹.

Take B4: binding was put at a Kd of 1.42 nM, the “Ratio WT-kd/clone-kd” value came to 2.32, the koff was 0.000407 s⁻¹ and the kon worked out at 288000 M⁻¹ s⁻¹.

B5: binding was characterised by a dissociation constant (Kd) of 2.42 nM, the “Ratio WT-kd/clone-kd” value amounted to 1.98, the koff amounted to 0.000476 s⁻¹ and the kon turned out to be 196000 M⁻¹ s⁻¹.

For the molecule B6, binding was characterised by a dissociation constant (Kd) of 2.19 nM, the “Ratio WT-kd/clone-kd” value came out at 1.17, the off-rate (koff) is 0.000809 s⁻¹ and the kon is 370000 M⁻¹ s⁻¹.

Consider B7, for which binding was put at a Kd of 1.95 nM, the “Ratio WT-kd/clone-kd” value came to 1.5, the dissociation rate constant (koff) amounted to 0.000627 s⁻¹ and the association rate constant (kon) turned out to be 322000 M⁻¹ s⁻¹.

Regarding B8, binding was put at a Kd of 2.56 nM, the “Ratio WT-kd/clone-kd” value came to 1.41, the koff was 0.00067 s⁻¹ and the kon came out at 262000 M⁻¹ s⁻¹.

For the molecule B9, the Kd turned out to be 1.13 nM, the “Ratio WT-kd/clone-kd” value was 1.83, the koff turned out to be 0.000514 s⁻¹ and the on-rate constant (kon) came to 456000 M⁻¹ s⁻¹.

Consider B10, for which the Kd was determined as 2.55 nM, the “Ratio WT-kd/clone-kd” value came to 1.18, the koff was 0.000802 s⁻¹ and the kon turned out to be 315000 M⁻¹ s⁻¹.

Take B11: the affinity, expressed as Kd, was 2.2 nM; the “Ratio WT-kd/clone-kd” value worked out at 1.21; the koff came to 0.000782 s⁻¹; the kon was found to be 355000 M⁻¹ s⁻¹.

As for B12, the Kd was determined as 2.28 nM, the “Ratio WT-kd/clone-kd” value turned out to be 1.44, the koff amounted to 0.000655 s⁻¹ and the kon is 287000 M⁻¹ s⁻¹.

As for B13, the Kd turned out to be 2.04 nM, the “Ratio WT-kd/clone-kd” value was 1.58, the koff was 0.000596 s⁻¹ and the on-rate (kon) was 292000 M⁻¹ s⁻¹.

In the case of B14, the Kd worked out at 1.99 nM, the “Ratio WT-kd/clone-kd” value came to 1.32, the koff amounted to 0.000714 s⁻¹ and the kon came out at 358000 M⁻¹ s⁻¹.

Take B15: the Kd came out at 1.86 nM, the “Ratio WT-kd/clone-kd” value is 1.68, the koff was 0.00056 s⁻¹ and the kon came to 301000 M⁻¹ s⁻¹.

Consider B16, for which binding was characterised by a dissociation constant (Kd) of 1.47 nM, the “Ratio WT-kd/clone-kd” value is 1.96, the koff was found to be 0.00048 s⁻¹ and the kon is 327000 M⁻¹ s⁻¹.

With B17, the Kd was 2.64 nM, the “Ratio WT-kd/clone-kd” value came to 1.04, the koff came out at 0.000903 s⁻¹ and the kon turned out to be 341000 M⁻¹ s⁻¹.

Take B18: binding was characterised by a dissociation constant (Kd) of 1.74 nM, the “Ratio WT-kd/clone-kd” value was determined as 1.2, the koff turned out to be 0.000783 s⁻¹ and the kon worked out at 450000 M⁻¹ s⁻¹.

As for B19, the Kd came out at 1.68 nM, the “Ratio WT-kd/clone-kd” value is 1.95, the koff stood at 0.000483 s⁻¹ and the kon was 287000 M⁻¹ s⁻¹.

With B20, the Kd was determined as 2.08 nM, the “Ratio WT-kd/clone-kd” value was determined as 1.41, the koff stood at 0.000667 s⁻¹ and the kon was 321000 M⁻¹ s⁻¹.

With B21, the Kd was found to be 1.87 nM, the “Ratio WT-kd/clone-kd” value is 1.86, the off-rate constant (koff) stood at 0.000507 s⁻¹ and the kon is 270000 M⁻¹ s⁻¹.

Regarding B22, the Kd was found to be 1.63 nM, the “Ratio WT-kd/clone-kd” value stood at 1.7, the koff turned out to be 0.000554 s⁻¹ and the kon turned out to be 340000 M⁻¹ s⁻¹.

Take B23: binding was put at a Kd of 1.05 nM, the “Ratio WT-kd/clone-kd” value stood at 3.23, the koff amounted to 0.000292 s⁻¹ and the kon came to 277000 M⁻¹ s⁻¹.

Consider B24, for which binding was put at a Kd of 2.15 nM, the “Ratio WT-kd/clone-kd” value came out at 1.36, the koff came out at 0.000695 s⁻¹ and the kon was 323000 M⁻¹ s⁻¹.

On to B25, for which the Kd was 1.87 nM, the “Ratio WT-kd/clone-kd” value is 1.46, the koff is 0.000648 s⁻¹ and the kon was 346000 M⁻¹ s⁻¹.

As to B26, the equilibrium dissociation constant (Kd) turned out to be 1.65 nM, the “Ratio WT-kd/clone-kd” value turned out to be 1.68, the koff was 0.00056 s⁻¹ and the kon was determined as 340000 M⁻¹ s⁻¹.

On to B27, for which the equilibrium dissociation constant (Kd) amounted to 1.25 nM, the “Ratio WT-kd/clone-kd” value turned out to be 2.91, the koff was 0.000324 s⁻¹ and the kon was 259000 M⁻¹ s⁻¹.

Take B28: binding was characterised by a dissociation constant (Kd) of 1.17 nM, the “Ratio WT-kd/clone-kd” value was 2.62, the koff is 0.00036 s⁻¹ and the on-rate constant (kon) stood at 309000 M⁻¹ s⁻¹.

Take B29: the Kd was determined as 2.03 nM, the “Ratio WT-kd/clone-kd” value was determined as 1.25, the off-rate constant (koff) stood at 0.000755 s⁻¹ and the kon came to 372000 M⁻¹ s⁻¹.
